Measured values reported in publication PMC7933101 (Proteins, 2020).
Values joined by “and” are separate entries in the source; they are usually repeats but may differ in a detail not shown here. Identical values can stand only once.

Columns and labels:
[1] = target: the molecule itself; experiment: PAGE under denaturing, non-reducing conditions
[2] = target: the molecule itself; experiment: non-reducing PAGE

B1: Granulin-3 (GRN-3) (natural protein, UniProt P28799 206-261, looked up)
chain: VMCPDARSRCPDGSTCCELPSGKWGCCPMPNATCCSDHLHCCPQDTVCDLIQSKCL
stoichiometry N [1]: ≤ 4 | stoichiometry N [2]: 2 and 3

B2: Granulin-5 (GRN-5) (natural protein, UniProt P28799 364-417, looked up)
chain: VPCDNVSSCPSSDTCCQLTSGEWGCCPIPEAVCCSDHQHCCPQGYTCVAEGQCQ
binding result [2]: binds
